Patent publication US20240270846A1 (published 2024)
Changes are numbered by the printed parent chain. In names and notes the source's numbering stands. Blank lines part the entries; values can stand above or below the binder they belong to.

How the values were obtained:
[1] = biological target: T1, CD3 epsilon homodimer protein (UniProt P07766 23-126); experiment: SPR Biacore T200, antibody over immobilised CD3e homodimer;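 also: CD3 epsilon homodimer amine-coupled on a CM4 chip, run at 25 °C in HBS-EP+, Z = bound amount of each single-residue H chain variant over that of the parent antibody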
T1 construct: also called CD3 (CD3 epsilon)
T1 sequence (P07766 23-126): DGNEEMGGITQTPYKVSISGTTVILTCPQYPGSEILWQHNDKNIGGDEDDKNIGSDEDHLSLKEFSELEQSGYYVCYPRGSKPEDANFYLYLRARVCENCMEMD

[2] = biological target: T2, CD3 epsilon homodimer protein (UniProt P07766 23-126); experiment: SPR Biacore T200, CD3 epsilon homodimer on CM4 chip, antibody as analyte;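 also: Amine-coupled CD3 epsilon homodimer, run at 25 °C in HBS-EP+ buffer, ratio is bound amount of each single-residue H chain variant over that of the parent antibody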
T2 construct: Immobilized on Sensor chip CM4 by amine coupling; construct not described; also called CD3 (CD3 epsilon)
T2 sequence (P07766 23-126): as above

B1: CE115HA000 Y55D one-arm antibody (antibody, human IgG1, kappa, L234A L235A, N297A, name in Kabat numbering)
heavy: QVQLVESGGGVVQPGRSLRLSCAASGFTFSNAWMHWVRQAPGKGLEWVAQIKAKSNNDATYYAESVKGRFTISRDDSKNSLYLQMNSLKTEDTAVYYCRYVHYGAYYGVDAWGQGTTVTVSSASTKGPSVFPLAPSSKSTSGGTAALGCLVKDYFPEPVTVSWNSGALTSGVHTFPAVLQSSGLYSLSSVVTVPSSSLGTQTYICNVNHKPSNTKVDKKVEPKSCDKTHTCPPCPAPEAAGGPSVFLFPPKPKDTLMISRTPEVTCVVVDVSHEDPEVKFNWYVDGVEVHNAKTKPREEQYASTYRVVSVLTVLHQDWLNGKEYKCKVSNKALPAPIEKTISKAKGQPREPQVYTLPPSRCELTKNQVSLSCAVKGFYPSDIAVEWESNGQPENNYKTTPPVLDSDGSFFLVSKLTVDKSRWQQGNVFSCSVMHEALHNHYTQKSLSLSPDYKDDDDK
chain: EPKSSDKTHTCPPCPAPELLGGPSVFLFPPKPKDTLMISRTPEVTCVVVDVSHEDPEVKFNWYVDGVEVHNAKTKPREEQYNSTYRVVSVLTVLHQDWLNGKEYKCKVSNKALPAPIEKTISKAKGQPREPQVCTLPPSRDELTKNQVSLWCLVKGFYPSDIAVEWESNGQPENNYKTTPPVLDSDGSFFLYSKLTVDKSRWQQGNVFSCSVMHEALHNRYTQKSLSLSP
light: DIVMTQSPLSLPVTPGEPASISCRSSQSLVHSNRNTYLHWYQQKPGQAPRLLIYKVSNRFSGVPDRFSGSGSGTDFTLKISRVEAEDVGVYYCGQGTQVPYTFGQGTKLEIKRTVAAPSVFIFPPSDEQLKSGTASVVCLLNNFYPREAKVQWKVDNALQSGNSQESVTEQDSKDSTYSLSSTLTLSKADYEKHKVYACEVTHQGLSSPVTKSFNRGEC
notes: one-arm antibody
- ratio of amounts bound (Z=Y/X vs CE115HA000) [1]: 0.45

B2: CE115HA000 D101A one-arm antibody (antibody, human IgG1, kappa, L234A L235A, N297A, name in Kabat numbering)
heavy: B1 heavy with D58Y, D110A
chain: B1 chain
light: B1 light
notes: one-arm antibody (one Fab)
- ratio of amounts bound (Y/X vs CE115HA000) [2]: 1.26

B3: CE115HA000 D73R one-arm antibody (antibody, human IgG1, kappa, L234A L235A, N297A, name in Kabat numbering)
heavy: B1 heavy with D58Y, D76R
chain: B1 chain
light: B1 light
notes: one-arm antibody (one Fab)
- ratio of amounts bound (Y/X vs CE115HA000) [2]: 1.04

B5: CE115HA000 A99Q one-arm antibody (antibody, human IgG1, kappa, L234A L235A, N297A, name in Kabat numbering)
heavy: B1 heavy with D58Y, A105Q
chain: B1 chain
light: B1 light
notes: one-arm antibody (one Fab)
- ratio of amounts bound (Y/X vs CE115HA000) [2]: 0.91

B6: CE115HA000 A99S one-arm antibody (antibody, human IgG1, kappa, L234A L235A, N297A, name in Kabat numbering)
heavy: B1 heavy with D58Y, A105S
chain: B1 chain
light: B1 light
notes: one-arm antibody (one Fab)
- ratio of amounts bound (Y/X vs CE115HA000) [2]: 0.82

B8: CE115HA000 Y55G one-arm antibody (antibody, human IgG1, kappa, L234A L235A, N297A, name in Kabat numbering)
heavy: B1 heavy with D58G
chain: B1 chain
light: B1 light
notes: one-arm antibody
- ratio of amounts bound (Z=Y/X vs CE115HA000) [1]: 0.55

B9: CE115HA000 Y58D one-arm antibody (antibody, human IgG1, kappa, L234A L235A, N297A, name in Kabat numbering)
heavy: B1 heavy with D58Y, Y61D
chain: B1 chain
light: B1 light
notes: one-arm antibody
- ratio of amounts bound (Z=Y/X vs CE115HA000) [1]: 0.11

B10: CE115HA000 D101G one-arm antibody (antibody, human IgG1, kappa, L234A L235A, N297A, name in Kabat numbering)
heavy: B1 heavy with D58Y, D110G
chain: B1 chain
light: B1 light
notes: one-arm antibody (one Fab)
- ratio of amounts bound (Y/X vs CE115HA000) [2]: 1.38

B19: CE115HA000 A56L one-arm antibody (antibody, human IgG1, kappa, L234A L235A, N297A, name in Kabat numbering)
heavy: B1 heavy with D58Y, A59L
chain: B1 chain
light: B1 light
notes: one-arm antibody (one Fab)
- ratio of amounts bound (Y/X vs CE115HA000) [2]: 0.8

B20: CE115HA000 A56N one-arm antibody (antibody, human IgG1, kappa, L234A L235A, N297A, name in Kabat numbering)
heavy: B1 heavy with D58Y, A59N
chain: B1 chain
light: B1 light
notes: one-arm antibody (one Fab)
- ratio of amounts bound (Y/X vs CE115HA000) [2]: 0.87

B22: CE115HA000 D101H one-arm antibody (antibody, human IgG1, kappa, L234A L235A, N297A, name in Kabat numbering)
heavy: B1 heavy with D58Y, D110H
chain: B1 chain
light: B1 light
notes: one-arm antibody (one Fab)
- ratio of amounts bound (Y/X vs CE115HA000) [2]: 1.21

B23: CE115HA000 A99Y one-arm antibody (antibody, human IgG1, kappa, L234A L235A, N297A, name in Kabat numbering)
heavy: B1 heavy with D58Y, A105Y
chain: B1 chain
light: B1 light
notes: one-arm antibody (one Fab)
- ratio of amounts bound (Y/X vs CE115HA000) [2]: 1.59

B25: CE115HA000 D72V one-arm antibody (antibody, human IgG1, kappa, L234A L235A, N297A, name in Kabat numbering)
heavy: B1 heavy with D58Y, D75V
chain: B1 chain
light: B1 light
notes: one-arm antibody (one Fab)
- ratio of amounts bound (Y/X vs CE115HA000) [2]: 1.43

B27: CE115HA000 A102V one-arm antibody (antibody, human IgG1, kappa, L234A L235A, N297A, name in Kabat numbering)
heavy: B1 heavy with D58Y, A111V
chain: B1 chain
light: B1 light
notes: one-arm antibody (one Fab)
- ratio of amounts bound (Y/X vs CE115HA000) [2]: 1.43

B33: CE115HA000 D101I one-arm antibody (antibody, human IgG1, kappa, L234A L235A, N297A, name in Kabat numbering)
heavy: B1 heavy with D58Y, D110I
chain: B1 chain
light: B1 light
notes: one-arm antibody (one Fab)
- ratio of amounts bound (Y/X vs CE115HA000) [2]: 1.18

The remaining lines, values ahead:

- ratio of amounts bound (Y/X vs CE115HA000) [2]: 0.91
B4: CE115HA000 A102Y one-arm antibody (antibody, human IgG1, kappa, L234A L235A, N297A, name in Kabat numbering)
heavy: B1 heavy with D58Y, A111Y
chain: B1 chain
light: B1 light
notes: one-arm antibody (one Fab)

- ratio of amounts bound (Y/X vs CE115HA000) [2]: 0.14
B7: CE115HA000 A102P one-arm antibody (antibody, human IgG1, kappa, L234A L235A, N297A, name in Kabat numbering)
heavy: B1 heavy with D58Y, A111P
chain: B1 chain
light: B1 light
notes: one-arm antibody (one Fab)

- ratio of amounts bound (Y/X vs CE115HA000) [2]: 1.48
B11: CE115HA000 A102I one-arm antibody (antibody, human IgG1, kappa, L234A L235A, N297A, name in Kabat numbering)
heavy: B1 heavy with D58Y, A111I
chain: B1 chain
light: B1 light
notes: one-arm antibody (one Fab)

- ratio of amounts bound (Y/X vs CE115HA000) [2]: 0.63
B12: CE115HA000 D73T one-arm antibody (antibody, human IgG1, kappa, L234A L235A, N297A, name in Kabat numbering)
heavy: B1 heavy with D58Y, D76T
chain: B1 chain
light: B1 light
notes: one-arm antibody (one Fab)

- ratio of amounts bound (Y/X vs CE115HA000) [2]: 0.76
B13: CE115HA000 A56Q one-arm antibody (antibody, human IgG1, kappa, L234A L235A, N297A, name in Kabat numbering)
heavy: B1 heavy with D58Y, A59Q
chain: B1 chain
light: B1 light
notes: one-arm antibody (one Fab)

- ratio of amounts bound (Y/X vs CE115HA000) [2]: 1.43
B14: CE115HA000 A99F one-arm antibody (antibody, human IgG1, kappa, L234A L235A, N297A, name in Kabat numbering)
heavy: B1 heavy with D58Y, A105F
chain: B1 chain
light: B1 light
notes: one-arm antibody (one Fab)

- ratio of amounts bound (Y/X vs CE115HA000) [2]: 0.28
B15: CE115HA000 A99D one-arm antibody (antibody, human IgG1, kappa, L234A L235A, N297A, name in Kabat numbering)
heavy: B1 heavy with D58Y, A105D
chain: B1 chain
light: B1 light
notes: one-arm antibody (one Fab)

- ratio of amounts bound (Z=Y/X vs CE115HA000) [1]: 0.66
B16: CE115HA000 Y59E one-arm antibody (antibody, human IgG1, kappa, L234A L235A, N297A, name in Kabat numbering)
heavy: B1 heavy with D58Y, Y62E
chain: B1 chain
light: B1 light
notes: one-arm antibody

- ratio of amounts bound (Z=Y/X vs CE115HA000) [1]: 0.7
B17: CE115HA000 Y59D one-arm antibody (antibody, human IgG1, kappa, L234A L235A, N297A, name in Kabat numbering)
heavy: B1 heavy with D58Y, Y62D
chain: B1 chain
light: B1 light
notes: one-arm antibody

- ratio of amounts bound (Z=Y/X vs CE115HA000) [1]: 0.85
B18: CE115HA000 Y59A one-arm antibody (antibody, human IgG1, kappa, L234A L235A, N297A, name in Kabat numbering)
heavy: B1 heavy with D58Y, Y62A
chain: B1 chain
light: B1 light
notes: one-arm antibody

- ratio of amounts bound (Y/X vs CE115HA000) [2]: 0.66
B21: CE115HA000 A56Y one-arm antibody (antibody, human IgG1, kappa, L234A L235A, N297A, name in Kabat numbering)
heavy: B1 heavy with D58Y, A59Y
chain: B1 chain
light: B1 light
notes: one-arm antibody (one Fab)

- ratio of amounts bound (Y/X vs CE115HA000) [2]: 0.84
B24: CE115HA000 A99T one-arm antibody (antibody, human IgG1, kappa, L234A L235A, N297A, name in Kabat numbering)
heavy: B1 heavy with D58Y, A105T
chain: B1 chain
light: B1 light
notes: one-arm antibody (one Fab)

- ratio of amounts bound (Y/X vs CE115HA000) [2]: 1.13
B26: CE115HA000 A99L one-arm antibody (antibody, human IgG1, kappa, L234A L235A, N297A, name in Kabat numbering)
heavy: B1 heavy with D58Y, A105L
chain: B1 chain
light: B1 light
notes: one-arm antibody (one Fab)

- ratio of amounts bound (Y/X vs CE115HA000) [2]: 0.75
B28: CE115HA000 D101F one-arm antibody (antibody, human IgG1, kappa, L234A L235A, N297A, name in Kabat numbering)
heavy: B1 heavy with D58Y, D110F
chain: B1 chain
light: B1 light
notes: one-arm antibody (one Fab)

- ratio of amounts bound (Z=Y/X vs CE115HA000) [1]: 0.3
B29: CE115HA000 Y58K one-arm antibody (antibody, human IgG1, kappa, L234A L235A, N297A, name in Kabat numbering)
heavy: B1 heavy with D58Y, Y61K
chain: B1 chain
light: B1 light
notes: one-arm antibody

- ratio of amounts bound (Z=Y/X vs CE115HA000) [1]: 0.22
B30: CE115HA000 Y58A one-arm antibody (antibody, human IgG1, kappa, L234A L235A, N297A, name in Kabat numbering)
heavy: B1 heavy with D58Y, Y61A
chain: B1 chain
light: B1 light
notes: one-arm antibody

- ratio of amounts bound (Y/X vs CE115HA000) [2]: 1.48
B31: CE115HA000 A99K one-arm antibody (antibody, human IgG1, kappa, L234A L235A, N297A, name in Kabat numbering)
heavy: B1 heavy with D58Y, A105K
chain: B1 chain
light: B1 light
notes: one-arm antibody (one Fab)

- ratio of amounts bound (Y/X vs CE115HA000) [2]: 0.94
B32: CE115HA000 D73N one-arm antibody (antibody, human IgG1, kappa, L234A L235A, N297A, name in Kabat numbering)
heavy: B1 heavy with D58Y, D76N
chain: B1 chain
light: B1 light
notes: one-arm antibody (one Fab)
